Reference: patent US20180371086A1

Key:
Assay in all cases: cell-based or functional assay
[1] = target: HIV-1 Env of clone CH077 (HIV-1)
[2] = target: HIV-1 Env of clone WITO (HIV-1)
[3] = target: HIV-1 Env of isolate 92US657 (HIV-1)
[4] = target: HIV-1 Env of clone REJO (HIV-1)
[5] = target: HIV-1 Env of clone CH058 (HIV-1)
[6] = target: HIV-1 Env of isolate 92US712 (HIV-1)
[7] = target: HIV-1 Env gp120 of virus CH058, on infected cells (HIV-1)
[8] = target: HIV-1 Env gp120 of virus 92US727, on infected cells (HIV-1)
[9] = target: HIV-1 Env of isolate 8176 (HIV-1)
[10] = target: HIV-1 Env of isolate 8106 (HIV-1)
[11] = target: HIV-1 Env of isolate 8398 (HIV-1)
[12] = target: HIV-1 Env of clone CH106 (HIV-1)
[13] = target: HIV-1 Env of isolate 8318 (HIV-1)
[14] = target: HIV-1 Env of isolate 92US727 (HIV-1)
[15] = target: HIV-1 Env of clone THRO (HIV-1)
[16] = target: HIV-1 Env of isolate 92HT593 (HIV-1)
[17] = target: HIV-1 Env gp120 of virus WITO, on infected cells (HIV-1)
[18] = target: HIV-1 Env of isolate 8320 (HIV-1)

## PGT-121.60 (antibody)
[1]
  IC50 (neutralization, CEM.NKr.CCR5.LucR based assay): > 100 µg/mL
[2]
  IC50 (neutralization, CEM.NKr.CCR5.LucR based assay): 1.05 µg/mL
[3]
  IC50 (neutralization, CEM.NKr.CCR5.LucR based assay): 0.168 µg/mL
[4]
  IC50 (neutralization, CEM.NKr.CCR5.LucR based assay): > 100 µg/mL
[5]
  IC50 (neutralization, CEM.NKr.CCR5.LucR based assay): 0.063 µg/mL
[6]
  IC50 (neutralization, CEM.NKr.CCR5.LucR based assay): 0.019 µg/mL
[7]
  Maximum percent of HIV-infected cells killed; PBMC-derived effector cells; donor 1003277; virus CHO58: 66.2%
  Maximum percent of HIV-infected cells killed; PBMC-derived effector cells; donor 1004344; virus CHO58: 82.8%
  Maximum percent of HIV-infected cells killed; tonsil-derived effector cells; donor 1003277; virus CHO58: 10.9%
  Maximum percent of HIV-infected cells killed; tonsil-derived effector cells; donor 1004344; virus CHO58: 0%
  Potency (IC50) of killing HIV-infected cells; PBMC-derived effector cells; donor 1003277; virus CHO58: 0.706 µg/mL
  Potency (IC50) of killing HIV-infected cells; PBMC-derived effector cells; donor 1004344; virus CHO58: 0.094 µg/mL
  Potency (IC50) of killing HIV-infected cells; tonsil-derived effector cells; donor 1003277; virus CHO58: > 10 µg/mL
  Potency (IC50) of killing HIV-infected cells; tonsil-derived effector cells; donor 1004344; virus CHO58: > 10 µg/mL
[8]
  Maximum percent of HIV-infected cells killed; PBMC-derived effector cells; donor 1004344; virus 92US727: 63.7%
  Maximum percent of HIV-infected cells killed; tonsil-derived effector cells; donor 1004344; virus 92US727: 0%
  Potency (IC50) of killing HIV-infected cells; PBMC-derived effector cells; donor 1004344; virus 92US727: 0.014 µg/mL
  Potency (IC50) of killing HIV-infected cells; tonsil-derived effector cells; donor 1004344; virus 92US727: > 10 µg/mL
[9]
  IC50 (neutralization, CEM.NKr.CCR5.LucR based assay): 0.028 µg/mL
[10]
  IC50 (neutralization, CEM.NKr.CCR5.LucR based assay): 0.091 µg/mL
[11]
  IC50 (neutralization, CEM.NKr.CCR5.LucR based assay): 0.028 µg/mL
[12]
  IC50 (neutralization, CEM.NKr.CCR5.LucR based assay): > 100 µg/mL
[13]
  IC50 (neutralization, CEM.NKr.CCR5.LucR based assay): 0.048 µg/mL
[14]
  IC50 (neutralization, CEM.NKr.CCR5.LucR based assay): 0.013 µg/mL
[15]
  IC50 (neutralization, CEM.NKr.CCR5.LucR based assay): > 100 µg/mL
[16]
  IC50 (neutralization, CEM.NKr.CCR5.LucR based assay): 0.024 µg/mL
[17]
  killing EC50; HIV-infected CD4 T cells (WITO); effector cells Eff Memory CD4: > 10 µg/mL
  killing EC50; HIV-infected CD4 T cells (WITO); effector cells Memory CD4: > 10 µg/mL
  killing EC50; HIV-infected CD4 T cells (WITO); effector cells Memory CD8: > 10 µg/mL
  killing EC50; HIV-infected CD4 T cells (WITO); effector cells γ Δ CD4: 0.36 µg/mL
  killing EC50; HIV-infected CEM-NKr-CCR5-LucR CD4 T cells; PBMC donor 4176; virus WITO: > 100 µg/mL
  killing EC50; HIV-infected CEM-NKr-CCR5-LucR CD4 T cells; PBMC donor 4288; virus WITO: 0.767 µg/mL
  killing Emax; HIV-infected CD4 T cells (WITO); effector cells Eff Memory CD4: 0%
  killing Emax; HIV-infected CD4 T cells (WITO); effector cells Memory CD4: 9%
  killing Emax; HIV-infected CD4 T cells (WITO); effector cells Memory CD8: 9%
  killing Emax; HIV-infected CD4 T cells (WITO); effector cells γ Δ CD4: 18%
  killing Emax; HIV-infected CEM-NKr-CCR5-LucR CD4 T cells; PBMC donor 4176; virus WITO: 0%
  killing Emax; HIV-infected CEM-NKr-CCR5-LucR CD4 T cells; PBMC donor 4288; virus WITO: 46%
[18]
  IC50 (neutralization, CEM.NKr.CCR5.LucR based assay): > 100 µg/mL
